The data set concerns the molecule itself. The data set is described as follows: AUC.

Consider one protein from article doi:10.1101/2023.11.22.568361 (bioRxiv, 2023).

B1: isolated LRS peptide (N:210–246) (peptide)
peptide: MAGNGGDAALALLLLDRLNQLESKMSGKGQQQQGQTV
Consider B1, for which the binding result is recorded as “binds”.
